± gives the uncertainty stated by the source.
Test: self-splicing fitness, log relative to wild type (ln ratio); higher = more splicing; Tetrahymena group I intron in knt gene, E. coli kanamycin selection, DiMSum; sequences stand for … in CUCUCU…GGAGGGAAAAGUUAUCAGGCAUGCACCUGGUAGCUAGUCUUUAAACCAAUAGAUUGCAUCGGUUUAAAAGGCAAGACCGUCAAAUUGCGGGAAAGGGGUCAACAGCCGUUCAGUACCAAGUCUCAGGGGAAACUUUGAGAUGGCCUUGCAAAGGGUAUGGUAAUAAGCUGACGGACAUGGUCCUAACCACGCAGCCAAGUCCUAAGUCAACAGAUCUUCUGUUGAUAUGGAUGCAGUUCACAGACUAAAUGUCGGUCGGGGAAGAUGUAUUCUUCUCAUAAGAUAUAGUCGGACCUCUCCUUAAUGGGAGCUAGCGGAUGAAGUGAUGCAACACUGGAGCCGCUGGGAACUAAUUUGUAUGCGAAAGUAUAUUGAUUAGUUUUGGAGUACUCGUGGUCG
Summary of the method: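 Six replicate transformations of E. coli BL21(DE3) with a pET-22b(+) library were grown overnight at 37°C or 30°C. The library randomised all eight P1ex-region intron nucleotides, the intron lying in the knt kanamycin-resistance gene, and plates were LB agar with or without 25 μg/mL kanamycin plus 100 μg/mL carbenicillin, 50 μM IPTG and 0.2% rhamnose. Pooled colonies were amplicon-sequenced on an Illumina HiSeq 2500, and fitness is the DiMSum error-weighted combination of wild-type-normalised replicate fold changes, kanamycin versus none.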

Row | Sequence | self-splicing fitness (ln) (30 °C) | self-splicing fitness (ln) (37 °C)
1 | UACGAGCAAUAUUACGCAAG | -2.57 ± 0.15 | -2.03 ± 0.35
2 | CGCUAGCAAUAUUACGUCAA | -3.88 ± 0.23 | -3.07 ± 0.23
3 | UUCCAGCAAUAUUACGCUAA | -0.0987 ± 0.083 | -0.376 ± 0.084
4 | AAUUAGCAAUAUUACGUGCA | -0.984 ± 0.096 | -0.374 ± 0.12
5 | UCAGAGCAAUAUUACGCUGU | -2.98 ± 0.26 | –
6 | AAGAAGCAAUAUUACGAGUG | -2.04 ± 0.12 | -1.23 ± 0.13
7 | AACUAGCAAUAUUACGUACC | -1.14 ± 0.1 | -0.0487 ± 0.14
8 | ACGCAGCAAUAUUACGCCUG | -2.79 ± 0.2 | -2.42 ± 0.33
9 | UGUCAGCAAUAUUACGCUAU | -1.83 ± 0.11 | -1.3 ± 0.12
10 | UUGGAGCAAUAUUACGAGCG | -2.64 ± 0.3 | -0.508 ± 0.32
11 | AGACAGCAAUAUUACGGCUA | -0.252 ± 0.08 | -0.286 ± 0.083
12 | UAUAAGCAAUAUUACGCGGU | -3.64 ± 0.26 | -3.54 ± 0.34
13 | ACAAAGCAAUAUUACGCUAU | -2.38 ± 0.088 | -0.848 ± 0.092
14 | CCGUAGCAAUAUUACGAUGA | -1.48 ± 0.11 | -1.13 ± 0.12
15 | GGGCAGCAAUAUUACGAGAA | -3.05 ± 0.47 | -1.87 ± 0.3
16 | AGUUAGCAAUAUUACGGCAA | -0.82 ± 0.08 | 0.163 ± 0.11
17 | CGAGAGCAAUAUUACGCCUU | -3.73 ± 0.43 | -1.07 ± 0.29
18 | AGUGAGCAAUAUUACGUAAA | -3.58 ± 0.22 | -1.3 ± 0.18
19 | CGGCAGCAAUAUUACGUUAG | -0.86 ± 0.057 | 0.0318 ± 0.078
20 | AAGUAGCAAUAUUACGCCAG | -2.64 ± 0.21 | -0.996 ± 0.24
21 | CUCGAGCAAUAUUACGUCCA | -1.95 ± 0.25 | -3.15 ± 0.47
22 | ACCAAGCAAUAUUACGUCGA | -2.16 ± 0.12 | -1.83 ± 0.1
23 | CUGUAGCAAUAUUACGUACU | -2.61 ± 0.11 | -1.3 ± 0.13
24 | UAUUAGCAAUAUUACGUUAU | -2.68 ± 0.19 | -2.2 ± 0.22
25 | CUCGAGCAAUAUUACGCAUG | -3.27 ± 0.2 | -3.58 ± 0.42
26 | UACUAGCAAUAUUACGUAGG | -4.09 ± 0.35 | -1.69 ± 0.22

Row | Sequence | self-splicing fitness (ln) (30 °C) | self-splicing fitness (ln) (37 °C)
27 | CGUAAGCAAUAUUACGUCGA | -2.94 ± 0.21 | -3.07 ± 0.2
28 | GCUUAGCAAUAUUACGUCCG | -1.68 ± 0.19 | -1.43 ± 0.24
29 | GAGGAGCAAUAUUACGAAUU | -3.43 ± 0.3 | –
30 | UCGUAGCAAUAUUACGUCUA | -1.48 ± 0.1 | -0.978 ± 0.12
31 | UUCAAGCAAUAUUACGAUCA | -0.845 ± 0.082 | -0.189 ± 0.093
32 | CCUCAGCAAUAUUACGCAAC | -2.21 ± 0.3 | -1.83 ± 0.4
33 | CGUCAGCAAUAUUACGGUAC | -3.64 ± 0.31 | -1.89 ± 0.27
34 | UCUUAGCAAUAUUACGGGUU | -2.2 ± 0.15 | -1.61 ± 0.18
35 | ACAUAGCAAUAUUACGGCUG | -0.175 ± 0.067 | -0.366 ± 0.095
36 | CUUCAGCAAUAUUACGCAGC | -2.04 ± 0.22 | -1.5 ± 0.32
37 | GGCUAGCAAUAUUACGGUUC | -1.31 ± 0.056 | -0.331 ± 0.072
38 | GGCAAGCAAUAUUACGUGUA | -0.7 ± 0.049 | -0.0721 ± 0.057
39 | CCAUAGCAAUAUUACGCCGG | -2.5 ± 0.21 | -3.15 ± 0.47
40 | CAGCAGCAAUAUUACGUUUA | -2.11 ± 0.12 | -2.02 ± 0.12
41 | GCGAAGCAAUAUUACGCUUG | -1.45 ± 0.26 | -1.56 ± 0.35
42 | AUCGAGCAAUAUUACGAAAC | -2.27 ± 0.31 | –
43 | CGUAAGCAAUAUUACGCCAG | -2.15 ± 0.15 | -0.931 ± 0.18
44 | AACCAGCAAUAUUACGGAAC | -2.13 ± 0.091 | -1.04 ± 0.088
45 | CACGAGCAAUAUUACGAUAA | -3.63 ± 0.32 | -2.32 ± 0.28
46 | UAUUAGCAAUAUUACGCUCC | -2.75 ± 0.35 | –
47 | UCGCAGCAAUAUUACGGCAU | -1.99 ± 0.074 | -0.415 ± 0.077
48 | CUGCAGCAAUAUUACGGCGU | – | -1.04 ± 0.32
49 | GGAAAGCAAUAUUACGAGAG | -4.25 ± 0.26 | -0.533 ± 0.1
50 | CGGUAGCAAUAUUACGAAUG | -0.573 ± 0.076 | 0.205 ± 0.097
51 | UCAUAGCAAUAUUACGACAG | -1.49 ± 0.13 | -1.26 ± 0.15
52 | GGUGAGCAAUAUUACGCGCA | -0.814 ± 0.21 | -0.146 ± 0.21

Row | Sequence | self-splicing fitness (ln) (30 °C) | self-splicing fitness (ln) (37 °C)
53 | CGAGAGCAAUAUUACGAGGG | -4.22 ± 0.31 | -3.16 ± 0.27
54 | GACAAGCAAUAUUACGCUGG | -2.84 ± 0.14 | -1.97 ± 0.17
55 | GGUAAGCAAUAUUACGGUGA | -1.45 ± 0.12 | -0.756 ± 0.13
56 | AAGCAGCAAUAUUACGUGAA | -1.35 ± 0.067 | -1.05 ± 0.077
57 | GUAGAGCAAUAUUACGCCCA | -1.56 ± 0.2 | -0.471 ± 0.25
58 | CGAUAGCAAUAUUACGAUCA | -0.106 ± 0.06 | 0.441 ± 0.087
59 | AGGUAGCAAUAUUACGUAGA | -3.995 ± 0.028 | -2.07 ± 0.036
60 | CUAAAGCAAUAUUACGCAAU | -3.94 ± 0.21 | -2.97 ± 0.24
61 | AAUUAGCAAUAUUACGUCUA | -0.734 ± 0.087 | -0.256 ± 0.093
62 | CAAAAGCAAUAUUACGUGAU | -3.62 ± 0.11 | -2.41 ± 0.12
63 | GAAUAGCAAUAUUACGUGGA | -3.38 ± 0.25 | -1.17 ± 0.15
64 | GUAGAGCAAUAUUACGCGGC | -3.37 ± 0.2 | -2.07 ± 0.18
65 | AGGAAGCAAUAUUACGGCGG | -1.34 ± 0.085 | -0.207 ± 0.11
66 | CUUUAGCAAUAUUACGGUUG | -0.918 ± 0.083 | -0.666 ± 0.099
67 | UGUGAGCAAUAUUACGGGUC | -4.25 ± 0.33 | -2.41 ± 0.19
68 | UGAUAGCAAUAUUACGCUGA | -1.79 ± 0.2 | -0.53 ± 0.12
69 | UCAGAGCAAUAUUACGCGCC | -2.37 ± 0.46 | –
70 | CGUAAGCAAUAUUACGGGUA | -2.63 ± 0.15 | -2.48 ± 0.21
71 | GAUUAGCAAUAUUACGGACC | -0.347 ± 0.18 | -0.379 ± 0.16
72 | CCCAAGCAAUAUUACGUUGC | -3.18 ± 0.25 | -2.16 ± 0.21
73 | CAAAAGCAAUAUUACGUCCC | -2.65 ± 0.26 | -2.26 ± 0.42
74 | UGAUAGCAAUAUUACGCGCG | -0.57 ± 0.086 | -0.283 ± 0.12
75 | AAGCAGCAAUAUUACGCACA | -0.331 ± 0.082 | 0.0315 ± 0.11
76 | CUCCAGCAAUAUUACGUGAG | -3.61 ± 0.15 | -2.62 ± 0.18
77 | AUCGAGCAAUAUUACGGCGA | -1.24 ± 0.18 | -0.629 ± 0.17

— the supplement of paper PMC7877785
